Measured values published in publication PMC3326311 (Nucleic Acids Research, 2011).
Positions count from the first letter of the chain named. Numbers in names are those of the source.

B1: NurA nuclease (Sulfolobus solfataricus), untagged (enzyme, Sulfolobus solfataricus P2)
chain: MIRKIYDKLVESHNEIKNQIYNIANYLKQEIQDKVNEYWNEYVINHEQSETCKFVAIDGGSFGRPMRIGIVYAVGAESVIGDNKGVKTLSEDGQIGIFKPGNDAQERISLLMEALELSLALRDGSKGDYILMDGSLSKKIGNKVDIQQFSDEELKLIRNVDLNGIISIKDERKMRDLLMLLNQFLVSKIIEEYDGNVLWISKVSRGRDLFGTDYPDITVLELFTEKRGFSKLIIKNIDIEKISEIPEIEVLRKMEYTTFYTRLDNGKRVIRVDIVGRVDEKIVKEIMDRLSGVSIKGYPFPLLKAHMDVRFSAMDREKIIKLVGSKLHKDIEWWPSQFY
B2: NurA F300E (enzyme, Sulfolobus solfataricus P2)
chain: B1 chain with F300E
B3: NurA K202A (enzyme, Sulfolobus solfataricus P2)
chain: B1 chain with K202A
B4: NurA I295E/F300E double mutant (enzyme, Sulfolobus solfataricus P2)
chain: B1 chain with I295E, F300E
B5: NurA I295E (enzyme, Sulfolobus solfataricus P2)
chain: B1 chain with I295E
B6: HerA helicase (Sulfolobus solfataricus), untagged (enzyme, Sulfolobus solfataricus P2, UniProt Q97WG8 1-500, looked up)
chain: MIIGYVIGQATTQEALILAERPVRLGTYVVLEYDNVKALGLITNVTRGSPMLDDNMNDIEIVQRLKQFNNSIPVYTKAKVKMLCDMNNHFLMPDIPPFAGTPAREAEDEELKSIYSQDGQIRIGSLIGKNVEVKLNINSFARHLAILAATGSGKSNTVAVLSQRISELGGSVLIFDYHGEYYDSDIKNLNRIEPKLNPLYMTPREFSTLLEIRENAIIQYRILRRAFIKVTNGIREKLKEGQIPFSTLNSQFYELMKDELETQGNSDKKSSAKDEVLNKFEEFMDRYSNVIDLTSSDIIEKVKRGKVNVVSLTQLDEDSMDAVVSHYLRRILDSRKDFKRSKNSGLKFPIIAVIEEAHVFLSKNENTLTKYWASRIAREGRKFGVGLTIVSQRPKGLDENILSQMTNKIILKIIEPTDKKYILESSDNLSEDLAEQLSSLDVGEAIIIGKIVKLPAVVKIDMFEGKLLGSDPDMIGEWKKVEESEKIAKGFADFGTEIGD

How the values were obtained:
crystal structure = target: the molecule itself; assay: crystal structure
SEC = target: the molecule itself; assay: SEC
[1] = target: B6; assay: SEC

Row | Binder | stoichiometry N (SEC) | also measured
1 | B1 |  | stoichiometry N (crystal structure): 2
2 | B2 | 2 | 
3 | B3 |  | binding result [1]: binds
4 | B4 | 2 | 
5 | B5 | 2 | 
6 | B6 | 6 | 
